# In US20040022780A1, “Serine protease and topical retinoid compositions useful for treatment of acne vulgarise and production of anti-aging effects” (priority 1997, published 2004):
# Assays:
# [1] = test system: elastin fibers in Rhino mouse skin; assay: Elastin staining of paraffin skin sections, Rhino mouse; assay type: in vivo; settings: trypsin treated Rhino mice vs untreated
# Excerpt: To further study this elasticity effect, skin sections of Rhino mice from Example 1 treated with the trypsin composition of Example 2 were stained for elastin on paraffin sections in accordance with the methods set forth in Kligman, L. H., “Luna's Technique, A Beautiful Stain for Elastin,” 3(2) The Amer. J. of Dermatopathol. 199-200 (1981) which is incorporated herein by reference in its entirety.
# [2] = test system: Elastin mRNA; assay: RT-PCR gene expression in skin, elastin; assay type: in vivo, Rhino mouse; settings: increasing concentrations of trypsin (0.0001-0.01% (w/v)) daily for five days
# Experimental: Rhino mice of Example 1 were treated daily with trypsin compositions (0% (w/v), 0.0001% (w/v), 0.001% (w/v), and 0.01% (w/v)), as prepared in Example 2, for five days and sacrificed at day eight. The skins of vehicle treated mice and trypsin-treated mice were obtained as described in Example 3, then their total RNAs were extracted using “RNA Stat-60” reagent available from Tel-Test “B,” Inc. as described in Chomczymski, “Single Step Method of RNA Isolation By Acid Guanidinium Thiocyanate-phenol-chloroform extraction,” 162 Anal. Biochem. 156-59 (1987) which is incorporated herein by reference in its entirety. A sufficient amount of RNase-free DNase available from Promega, Corp. under the tradename “RQ1 RNase-free DNase” was then added to the extracted RNA from each mouse such that each respective product contained 200 ng of DNased-RNA using the procedure set forth in “RNase-free DNase” protocol published by Promega, Corp. (May, 1995). […]
# The PCR products were then analyzed on 2% agarose/ethidium bromide gels according to methods well-known in the art in order to compare the level of expression of certain genes in skins of trypsin-treated and untreated mice. […]
# [3] = test system: Rhino mouse skin; assay: Visual irritation (scaling and erythema); assay type: in vivo; settings: up to 1% (w/v) trypsin; not dose dependent
# [4] = test system: hamster ear sebaceous gland; assay: Hamster ear model, sebaceous gland size; assay type: in vivo, golden Syrian hamsters
# Experimental: The possible effect of trypsin on the sebaceous component of acne was evaluated using the hamster ear model system. Young golden Syrian hamsters, 45-55 grams upon arrival, were purchased from Charles River Laboratories (Wilmington, Mass.). The ventral side of the hamsters' right ears were treated daily with 10 μl of the trypsin composition of Example 2, five days a week for three weeks, while the left ears were used as untreated controls.
# [5] = test system: Rhino mouse skin; assay: Histology after suboptimal trypsin, all-trans retinoic acid or both; assay type: in vivo; settings: suboptimal dose alone: 0.005% (w/v) trypsin or 0.0005% (w/v) all-trans retinoic acid
# Experimental: A first set of Rhino mice of Example 1 were treated with suboptimal doses of the trypsin composition of Example 2. […] A second set of Rhino mice of Example 1 were treated with suboptimal concentrations of the all-trans retinoic acid composition of Example 2. A third set of Rhino mice of Example 1 were treated with both suboptimal doses of the trypsin composition of Example 2 and the all-trans retinoic acid composition of Example 2. In this third set of Rhino mice, the trypsin and all-trans retinoic acid treatments were each administered daily, but at different times (i.e. trypsin in the morning and all-trans retinoic acid in the afternoon). Mice were sacrificed and their skins were examined histologically with the procedure set forth in Example 3.
molecule,measurement,setting,value
"trypsin (protein, UniProt P00760 24-246, looked up, lyophilyzed trypsin from Sigma-Aldrich, a serine protease, in Hepes buffer mixed with GDL liposomes) Serine protease 1: IVGGYTCGANTVPYQVSLNSGYHFCGGSLINSQWVVSAAHCYKSGIQVRLGEDNINVVEGNEQFISASKSIVHPSYNSNTLNNDIMLIKLKSAASLNSRVASISLPTSCASAGTQCLISGWGNTKSSGTSYPDVLKCLKAPILSDSSCKSAYPGQITSNMFCAGYLEGGKDSCQGDSGGPVVCSGKLQGIVSWGSGCAQKNKPGVYTKVCNYVSWIKQTIASN",elastin fibers around the utriculi and the sebaceous glands,[1],increased in thickness and density
same,Elastin mRNA,[2],increased
same,visual irritation (scaling and erythema),[3],minor scaling and erythema
same,Sebaceous Gland Size,"[4]; Trypsin 0.5% (w/v), 10 μl daily on ventral right ear, five days a week for three weeks",95043.0 ± 4269.1 μ^2
same,Percent Size Decrease (%) of sebaceous gland,"[4]; Trypsin 0.5% (w/v), vs. liposome vehicle",−0.36 (vs. liposome %
same,effect on the size of the sebaceous gland,"[4]; hamster ear, daily, five days a week for three weeks",no effect
same,skin histology of treatment given alone vs untreated skin,[5],marked inprovement
